# Laboratory results as given in US9517265B2, “Methods for the prevention and/or treatment of memory impairment” (The Governing Council of the University of Toronto, priority 2010, dated 2016).
# Entries after “also recorded” stand apart in the source; their conditions may differ.
# B1: IL-1β: pro-inflammatory cytokine interleukin-1β; recombinant mouse IL-1β; IL-13 and IL-β in b369 are misprints (protein, UniProt P10749 118-269, looked up)
# Interleukin-1 beta: VPIRQLHYRLRDEQQKSLVLSDPYELKALHLNGQNINQQVIFSMSFVQGEPSNDKIPVALGLKGKNLYLSCVMKDGTPTLQLESVDPKQYPKKKMEKRFVFNKIEVKSKVEFESAEFPNWYISTSQAEHKPVFLGNNSGQDIIDFTMESVSS
# Key:
# α5GABAARs [1] = biological target: T1, α5GABAARs (Mus musculus, UniProt P22723+Q8BHJ7); experiment: Tonic inhibitory current, whole cell voltage-clamp in cultured hippocampal neurons; type: cell-based, mice; parameters: endogenous in cells; host or cells: primary embryonic mouse hippocampal neurons, alone or co-cultured with cortical microglia; settings: for effect on the tonic current (in words): cultured hippocampal neurons
# [2] = biological target: T2, GABAA receptor α5-subtype (Homo sapiens, UniProt P18507+P31644); settings: inverse agonist selective for the α5-subtype; cited from earlier work
# T2 sequence (P31644 32-462): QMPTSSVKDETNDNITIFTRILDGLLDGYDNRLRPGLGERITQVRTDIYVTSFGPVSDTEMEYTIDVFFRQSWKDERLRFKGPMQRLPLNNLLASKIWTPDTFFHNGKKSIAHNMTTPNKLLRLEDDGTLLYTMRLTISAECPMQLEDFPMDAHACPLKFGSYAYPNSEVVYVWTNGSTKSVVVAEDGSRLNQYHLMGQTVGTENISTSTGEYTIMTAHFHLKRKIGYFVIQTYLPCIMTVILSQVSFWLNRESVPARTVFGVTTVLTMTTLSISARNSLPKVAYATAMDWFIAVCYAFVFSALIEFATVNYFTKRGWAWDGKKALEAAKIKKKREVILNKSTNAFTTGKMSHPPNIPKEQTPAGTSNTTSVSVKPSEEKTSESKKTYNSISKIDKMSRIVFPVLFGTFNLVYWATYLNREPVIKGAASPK
# T2 sequence (P28472 26-473 partner): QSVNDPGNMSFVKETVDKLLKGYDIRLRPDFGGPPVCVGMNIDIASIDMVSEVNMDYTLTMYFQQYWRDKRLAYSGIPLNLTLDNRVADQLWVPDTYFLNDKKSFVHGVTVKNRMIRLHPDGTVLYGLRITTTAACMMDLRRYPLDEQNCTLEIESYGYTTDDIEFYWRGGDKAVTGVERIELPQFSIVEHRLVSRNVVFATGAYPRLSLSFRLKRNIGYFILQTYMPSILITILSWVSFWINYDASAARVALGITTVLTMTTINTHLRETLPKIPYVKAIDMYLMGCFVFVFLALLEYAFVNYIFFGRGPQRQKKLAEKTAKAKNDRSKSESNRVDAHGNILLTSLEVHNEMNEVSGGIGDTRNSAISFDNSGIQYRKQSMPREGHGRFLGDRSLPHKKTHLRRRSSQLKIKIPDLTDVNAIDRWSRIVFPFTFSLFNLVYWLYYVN
# T2 sequence (P18507 40-467 limits assumed): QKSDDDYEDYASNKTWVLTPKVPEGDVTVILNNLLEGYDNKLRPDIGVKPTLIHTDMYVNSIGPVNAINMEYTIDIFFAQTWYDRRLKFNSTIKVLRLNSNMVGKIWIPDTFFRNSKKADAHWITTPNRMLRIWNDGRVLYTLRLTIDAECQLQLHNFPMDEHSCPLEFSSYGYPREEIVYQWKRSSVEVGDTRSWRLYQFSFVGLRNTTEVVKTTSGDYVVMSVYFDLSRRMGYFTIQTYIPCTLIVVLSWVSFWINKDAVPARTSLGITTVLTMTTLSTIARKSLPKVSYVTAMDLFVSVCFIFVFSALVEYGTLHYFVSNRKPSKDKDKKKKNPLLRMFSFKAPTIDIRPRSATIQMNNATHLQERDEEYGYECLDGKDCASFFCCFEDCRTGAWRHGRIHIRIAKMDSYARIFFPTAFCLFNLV
# α5GABAARs [3] = biological target: T1, α5GABAARs; experiment: Fear conditioning after IL-1β or LPS injection; type: in vivo, mice; settings: for contextual fear memory, WT mice (in words): IL-1β 1 μg kg^−1 i.p. or LPS 125 μg kg^−1 i.p. 3 h before conditioning, inverse agonist co-administered; for cued fear memory to a conditioned tone stimulus (in words): mouse, in vivo
# Protocol: Pavlovian fear-conditioning tasks were used for behavioral analysis^29. LPS (125 μg kg^−1, i.p., with physiological saline as the vehicle control) or IL-1β (1 μg kg^−1, i.p., with 0.1% bovine serum albumin as the vehicle control) was injected into male 3- to 4-month-old WT and Gabra5−/− mice 3 h before conditioning. The intensity of the electric footshock was 0.5 mA. For some mice, the inverse agonist L-655,708 (0.35 or 0.5 mg kg^−1, i.p.) or vehicle control (10% DMSO, i.p.) was injected 30 min before training. The movement of the mouse was monitored. The percentage of time that each mouse spent in a freezing position was determined using FreezeView software (Version 2.26, Actimetrics Inc, Wilmette, Ill., USA).
# We have determined that IL-1β-induced impairment of contextual fear memory can be reversed by pharmacological inhibition of α5GABAA receptors by the inverse agonist MRK-016. Fear conditioning was performed 3 h after injection of IL-1β (1 μg kg^−1, i.p.) in both wild-type (WT) and α5GABAA receptor knock out (Gabra5−/−) mice. Mice were trained to associate a context (contextual fear) and a tone (cued fear) with an aversive electric footshock. 24 h after conditioning each mouse was placed in the training context, and contextual fear memory was measured as the percentage of time spent freezing. Cued fear memory was measured 48 h after training as the percentage of time spent freezing to the conditioned auditory tone in a novel context.
# α5GABAARs [4] = experiment: Tonic current in ex vivo hippocampal slices (CA1 pyramidal neurons); type: cell-based; settings: slices from WT mice treated with IL-1β 1 μg kg^−1 i.p. 2-3 h before sacrifice, n=6
# Protocol: Recordings were performed as previously described^29. Hippocampal slices ([…]) were prepared from male 3- to 4-week-old WT mice with a mixed genetic background (C57BL/6/SvEv129). Mice were injected with vehicle (0.1% bovine serum albumin, i.p.) or IL-1β ([…], i.p.) 2-3 hours before sacrifice. To record the tonic GABAergic current, […] GABA was added, and the GABAAR competitive antagonist Bic ([…]) was applied to reveal the tonic current. All cells were recorded at a holding potential of −60 mV.
# postsynaptic GABAARs = experiment: Whole-cell currents evoked by exogenous GABA (10 μM) in cultured hippocampal neurons; type: cell-based, mice; settings: IL-1β 20 ng ml−1; GABA 10 μM; n=9
# synaptic GABAARs = experiment: Miniature inhibitory postsynaptic currents (mIPSCs) in cultured hippocampal neurons; type: cell-based, mice; settings: IL-1β 20 ng ml^−1
# α5 subunit of GABAARs = experiment: Hippocampal slice cell surface biotinylation assay; type: cell-based, C57BL/6 mice
# Protocol: (§1) Cell surface biotinylation assay for α5 and α1 subunits of GABAARs was performed as previously described^25. Hippocampal slices ([…]) from male 10- to 14-week-old C57BL/6 mice were treated with IL-1β (20 ng ml^1, 40 min). Anti-GABAAR α1 and α5 antibodies were obtained from PhosphoSolutions (Aurora, Calif., USA).
# α1 subunit of GABAARs = experiment: Hippocampal slice cell surface biotinylation assay; type: cell-based, C57BL/6 mice; settings: IL-1β 20 ng ml−1, 40 min, n=5
# Protocol: as §1
# T1 sequence (Q8BHJ7 32-463 limits assumed): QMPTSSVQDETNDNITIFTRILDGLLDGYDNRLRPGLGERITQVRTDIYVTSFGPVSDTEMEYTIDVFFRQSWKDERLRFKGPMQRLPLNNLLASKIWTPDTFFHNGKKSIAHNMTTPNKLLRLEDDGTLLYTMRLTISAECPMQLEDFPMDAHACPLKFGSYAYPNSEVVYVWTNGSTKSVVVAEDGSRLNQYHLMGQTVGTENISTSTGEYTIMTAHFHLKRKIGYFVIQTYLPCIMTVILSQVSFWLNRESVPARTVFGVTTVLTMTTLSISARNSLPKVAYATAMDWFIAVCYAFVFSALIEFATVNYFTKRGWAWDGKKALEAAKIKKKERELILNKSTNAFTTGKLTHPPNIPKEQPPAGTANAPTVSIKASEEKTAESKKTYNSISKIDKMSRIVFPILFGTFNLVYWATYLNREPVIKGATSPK
# T1 sequence (P63080 26-473 partner): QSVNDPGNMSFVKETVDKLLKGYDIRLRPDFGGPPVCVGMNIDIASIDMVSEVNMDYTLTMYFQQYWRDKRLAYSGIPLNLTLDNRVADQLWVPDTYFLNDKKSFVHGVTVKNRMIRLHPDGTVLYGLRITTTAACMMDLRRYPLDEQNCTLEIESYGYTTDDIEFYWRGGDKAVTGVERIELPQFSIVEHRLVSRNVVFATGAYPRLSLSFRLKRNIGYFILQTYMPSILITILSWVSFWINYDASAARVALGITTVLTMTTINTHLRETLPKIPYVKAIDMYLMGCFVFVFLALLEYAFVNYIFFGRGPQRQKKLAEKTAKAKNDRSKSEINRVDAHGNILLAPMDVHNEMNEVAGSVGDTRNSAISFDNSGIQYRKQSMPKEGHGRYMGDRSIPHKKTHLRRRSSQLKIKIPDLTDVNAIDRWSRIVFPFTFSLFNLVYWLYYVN
# T1 sequence (P22723 39-474): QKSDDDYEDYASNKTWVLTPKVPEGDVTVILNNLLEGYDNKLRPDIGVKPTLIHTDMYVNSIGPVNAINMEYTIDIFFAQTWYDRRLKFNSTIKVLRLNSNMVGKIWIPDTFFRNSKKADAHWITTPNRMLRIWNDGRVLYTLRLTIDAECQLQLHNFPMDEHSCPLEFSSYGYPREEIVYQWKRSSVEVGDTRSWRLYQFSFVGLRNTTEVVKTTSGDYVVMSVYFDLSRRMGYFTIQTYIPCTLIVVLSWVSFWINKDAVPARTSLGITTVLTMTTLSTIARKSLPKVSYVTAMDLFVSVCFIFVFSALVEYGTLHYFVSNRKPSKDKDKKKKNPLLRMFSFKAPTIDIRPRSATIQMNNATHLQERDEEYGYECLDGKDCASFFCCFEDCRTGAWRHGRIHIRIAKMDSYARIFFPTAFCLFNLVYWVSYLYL
molecule,measurement,setting,value
"Cc1cc(-c2nncc3c(C(C)(C)C)c(OCc4ncnn4C)nn23)no1 [MRK-016, 3-(1,1-Dimethylethyl)-7-(5-methyl-3-isoxazolyl)-2-[(1-methyl-1H-1,2,4-triazol-5-yl)methoxy]-pyrazolo[1,5-d][1,2,4]triazine]",effect on the tonic current (in words),α5GABAARs [1],inhibited the tonic current; also recorded: blocks the tonic inhibitory current in hippocampal neurons from mice
same,EC50,[2],3 nM
same,"contextual fear memory, WT mice (in words)",α5GABAARs [3],restored freezing scores for contextual fear memory to control values
same,"contextual fear memory, WT mice (in words)",α5GABAARs [3]; listed as MRK-016A,reverses memory deficits associated with inflammation
same,cued fear memory to a conditioned tone stimulus (in words),α5GABAARs [3],did not affect freezing to a conditioned tone stimulus
B1,tonic current,α5GABAARs [4],44.9±9.4 pA
same,increase of the amplitude of the tonic current,α5GABAARs [1]; 20 ng ml^−1 for 20 min,45%
same,tonic current density,"α5GABAARs [1]; IL-1β 20 ng ml^−1 20 min with or without SB203,580 20 μM 30 min",1.4±0.1 pA pF^−1
same,variance of the noise (root mean square deviation),"α5GABAARs [1]; IL-1β 20 ng ml^−1 for 20 min, n=22",9.8±0.7 pA
same,tonic current density,"α5GABAARs [1]; IL-1β 20 ng ml^−1 for 20 min, revealed by bicuculline 100 μM, n=22",1.6±0.1 pA pF^−1
same,tonic current density,"α5GABAARs [1]; IL-1β 60 ng ml^−1 for 3 h, n=6",2.0±0.3 pA pF^−1
same,tonic current density,"α5GABAARs [1]; IL-1β for 12-15 h, n=21",1.3±0.6 pA pF^−1
same,effect on the tonic current (in words),α5GABAARs [1],increased the amplitude of the tonic current; also recorded: increased the tonic current recorded in wild-type (WT) neurons but not in neurons isolated from Gabra5−/− mice
same,inhibition of the GABA-evoked peak current,postsynaptic GABAARs,27.8%±2.2%
same,inhibition of the GABA-evoked steady-state current,postsynaptic GABAARs,12.7%±1.5%
same,"contextual fear memory, Gabra5−/− mice (in words)",α5GABAARs [3]; IL-1β 1 μg kg^−1 i.p. or LPS 125 μg kg^−1 i.p.,exhibited no such deficits
same,"contextual fear memory, WT mice (in words)",α5GABAARs [3],showed impairment of contextual fear memory
same,cued fear memory to a conditioned tone stimulus (in words),α5GABAARs [3],cued fear memory to a conditioned tone stimulus was not affected by IL-1β
same,reduction of the amplitude of the mIPSCs,synaptic GABAARs,17.3%±3.1%
same,reduction of the charge transfer of the mIPSCs,synaptic GABAARs,22.2%±7.0%
same,mIPSC Amplitude,"synaptic GABAARs; IL-1ra 250 ng ml^−1, mean ± S.E.M., n = 6",24.7 ± 2.1 pA
same,mIPSC Area,"synaptic GABAARs; IL-1ra 250 ng ml^−1, n = 6",279.0 pA · ms
same,mIPSC Decay time,"synaptic GABAARs; IL-1ra 250 ng ml^−1, n = 6",14.8 ± 1.1 ms
same,mIPSC Frequency,"synaptic GABAARs; IL-1ra 250 ng ml^−1, n = 6",3.7 ± 2.3 Hz
same,mIPSC Rise time,"synaptic GABAARs; IL-1ra 250 ng ml^−1, n = 6",2.4 ± 0.1 ms
same,α5 subunits expressed on the surface of the neurons,"α5 subunit of GABAARs; IL-1β 20 ng ml−1, 40 min, n=3",183.3%±29.6%
same,surface expression of α5GABAARs (in words),"α5 subunit of GABAARs; IL-1β 20 ng/ml for 20 or 40 min, preliminary study",dramatically increases the surface expression of α5GABAARs
same,surface expression of α1 subunits (in words),α1 subunit of GABAARs,caused no increase in the surface expression of α1 subunits
